Test results published in US20220332804A1 (CSL INNOVATION, published 2022).
Substitutions are numbered along the chain they refer to.

Assays:
Test in all cases: SPR, mAb captured, C2 mutant analyte;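 also: Anti-C2 mAbs captured on goat anti-human IgG Biacore CM5 chips, alanine or serine C2 surface mutants flowed over at 37 °C, double-referenced sensorgrams fitted to a 1:1 binding model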
human C2 V448A = molecular target: T1, human C2 V448A (human, UniProt P06681 21-752)
T1 sequence: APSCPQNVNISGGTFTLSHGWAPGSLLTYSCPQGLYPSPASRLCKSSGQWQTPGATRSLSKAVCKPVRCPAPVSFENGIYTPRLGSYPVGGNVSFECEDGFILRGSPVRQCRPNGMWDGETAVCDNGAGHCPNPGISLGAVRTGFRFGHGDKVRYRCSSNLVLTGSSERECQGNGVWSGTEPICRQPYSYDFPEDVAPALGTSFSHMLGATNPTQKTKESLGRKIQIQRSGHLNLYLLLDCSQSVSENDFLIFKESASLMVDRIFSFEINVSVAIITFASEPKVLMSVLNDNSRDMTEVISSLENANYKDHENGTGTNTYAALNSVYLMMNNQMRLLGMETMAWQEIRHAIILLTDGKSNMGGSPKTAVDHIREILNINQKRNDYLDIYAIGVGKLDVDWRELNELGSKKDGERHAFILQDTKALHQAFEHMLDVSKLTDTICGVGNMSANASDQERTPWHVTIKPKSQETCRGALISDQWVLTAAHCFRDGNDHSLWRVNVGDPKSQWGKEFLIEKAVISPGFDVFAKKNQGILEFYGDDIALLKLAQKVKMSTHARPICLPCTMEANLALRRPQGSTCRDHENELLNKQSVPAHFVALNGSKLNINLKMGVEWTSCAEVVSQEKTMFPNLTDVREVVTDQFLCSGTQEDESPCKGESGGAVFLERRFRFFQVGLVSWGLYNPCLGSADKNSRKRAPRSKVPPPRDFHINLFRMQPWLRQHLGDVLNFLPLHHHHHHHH

human C2 K430A = molecular target: T2, human C2 K430A (human, UniProt P06681 21-752)
T2 sequence: T1 sequence with K410A, A428V

human C2 S456A = molecular target: T3, human C2 S456A (human, UniProt P06681 21-752)
T3 sequence: T1 sequence with A428V, S436A

human C2 I438A = molecular target: T4, human C2 I438A (human, UniProt P06681 21-752)
T4 sequence: T1 sequence with I418A, A428V

B1: RF16-214 (antibody, V domains shown)
VH: EVQLLESGGGLVQPGGSLRLSCAASGFTFSWYQMMWVRQAPGKGLEWVSRIYPSGGGTAYADSVKGRFTISRDNSKNTLYLQMNSLRAEDTAVYYCARDAGYGDNWGQGTLVTVSS
VL: QSALTQPPSVSVSPGQTASITCSGDKLGEKYASWYQQKAGQSPVMVIYQDRKRPSGIPERFSGSNSGNTATLTISGTQAMDEADYYCQAWDTRAVVFGGGTKLTVLG
Binder B1 has a Kd (human C2 V448A) of 6.9 nM, a Kd (human C2 K430A) of 308 nM and a Kd (human C2 S456A) of 157 nM. It also gave a Kd (human C2 I438A) of 30.6 nM.
